Results: patent publication US20120039874 (published 2012)

T1: human AILIM-IgFc (human, UniProt Q9Y6W8)
T1 chain: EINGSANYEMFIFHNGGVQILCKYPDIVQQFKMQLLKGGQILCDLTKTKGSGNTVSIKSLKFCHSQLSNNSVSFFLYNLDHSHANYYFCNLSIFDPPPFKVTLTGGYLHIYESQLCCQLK

B1: AII289 (JMab-138) (antibody, V domains shown)
VH: EVQLVESGGGLVQPGGSLRLSCAASGFTFSSYDMHWVRQATGKGLEWVSAIGTAGDTYYPGSVKGRFTISRENAKNSLYLQMNSLRAGDTAVYYCVRDNRKVTHEHYYYYGMDVWGQGTTVTVSS
VL: EIVLTQSPGTLSLSPGERATLSCRASQNIRSSYLAWYQQKPGQAPGLLIYGASSRATGIPDRFSGSGSGTDFTLTISRLEPEDFAVYYCQQFGSSPMCSFGQGTKLEIKR
B2: AII394 (JMab-139) (antibody, V domains shown)
VH: EVQLVESGGGLVQPGGSLRLSCAASGFTFSSYDMHWVRQATGKGLEWVSAIGTAGDTYYPGSVKGRFTISRENAKNSLYLQMNSLRAGDTAVYYCVRDKRTVTHEHYYYYGMDVWGQGTTVTVSS
VL: EIVLTQSPGTLSLSPGERATLSCRASQSISSSSLAWYQQKPGQAPGLLIFGASSRATGIPDRFSGSGSGTDFTLTISRLEPEDFAVYYCQQFGSSPMCSFGQGTKLEIKR

Target: T1, human AILIM-IgFc
Assay: SPR

Binder	Kd [nM]
B1	1.1
B2	0.77
